According to patent US20260109747A1:

Assays:
Assay in all cases: cell-based or functional assay
[1] = target: cynomolgus monkey IL-2Rα/β/γ (cynomolgus monkey)
human IL-2Rα/β/γ (human) = human IL-2Rα/β/γ (human) (UniProt P01589)
human IL-2Rβ/γ (human) = human IL-2Rβ/γ (human) (UniProt P14784)
mouse IL-2Rβ/γ (mouse) = target: T1, mouse IL-2Rβ/γ (mouse) (UniProt P16297)
T1 sequence (looked up) 1: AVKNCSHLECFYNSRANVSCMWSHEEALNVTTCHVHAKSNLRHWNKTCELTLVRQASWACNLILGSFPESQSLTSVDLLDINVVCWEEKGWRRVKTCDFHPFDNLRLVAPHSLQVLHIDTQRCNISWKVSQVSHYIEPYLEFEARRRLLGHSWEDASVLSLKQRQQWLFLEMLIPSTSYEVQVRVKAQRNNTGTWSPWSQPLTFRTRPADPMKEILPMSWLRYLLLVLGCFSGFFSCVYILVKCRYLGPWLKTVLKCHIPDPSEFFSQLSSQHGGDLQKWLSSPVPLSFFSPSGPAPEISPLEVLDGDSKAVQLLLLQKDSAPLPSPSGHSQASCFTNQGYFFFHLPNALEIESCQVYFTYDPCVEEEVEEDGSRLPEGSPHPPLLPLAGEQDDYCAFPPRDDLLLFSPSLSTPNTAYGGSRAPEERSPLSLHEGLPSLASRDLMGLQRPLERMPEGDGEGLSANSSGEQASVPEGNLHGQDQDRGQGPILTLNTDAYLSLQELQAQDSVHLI
T1 sequence (looked up) 2: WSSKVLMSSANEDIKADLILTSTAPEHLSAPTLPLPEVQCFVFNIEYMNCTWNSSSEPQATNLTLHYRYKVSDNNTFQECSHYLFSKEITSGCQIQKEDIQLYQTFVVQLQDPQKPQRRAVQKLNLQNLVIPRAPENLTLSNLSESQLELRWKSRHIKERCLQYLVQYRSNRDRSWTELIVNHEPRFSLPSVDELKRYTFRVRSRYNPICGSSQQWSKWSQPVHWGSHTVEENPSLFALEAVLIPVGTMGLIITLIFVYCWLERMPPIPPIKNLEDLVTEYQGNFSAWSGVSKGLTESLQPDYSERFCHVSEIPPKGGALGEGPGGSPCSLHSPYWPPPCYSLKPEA

human IL-2Rβ/γ (human), sequence (P14784 27-551, chain 1 of 2): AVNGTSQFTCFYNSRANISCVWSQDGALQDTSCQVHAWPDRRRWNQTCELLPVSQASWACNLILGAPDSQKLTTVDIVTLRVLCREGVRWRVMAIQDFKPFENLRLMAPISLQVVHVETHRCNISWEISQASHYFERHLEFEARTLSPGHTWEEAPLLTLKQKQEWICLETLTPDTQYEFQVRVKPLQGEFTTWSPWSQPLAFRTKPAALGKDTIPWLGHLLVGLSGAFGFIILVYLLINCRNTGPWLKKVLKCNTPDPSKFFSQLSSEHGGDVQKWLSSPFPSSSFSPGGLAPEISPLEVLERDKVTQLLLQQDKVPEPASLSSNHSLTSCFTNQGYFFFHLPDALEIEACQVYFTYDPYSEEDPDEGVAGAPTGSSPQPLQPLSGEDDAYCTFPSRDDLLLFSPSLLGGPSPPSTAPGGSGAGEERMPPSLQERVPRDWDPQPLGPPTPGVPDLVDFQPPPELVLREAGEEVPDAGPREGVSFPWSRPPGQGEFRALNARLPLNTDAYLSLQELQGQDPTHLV
human IL-2Rβ/γ (human), sequence (P31785 23-369, chain 2 of 2, further chain): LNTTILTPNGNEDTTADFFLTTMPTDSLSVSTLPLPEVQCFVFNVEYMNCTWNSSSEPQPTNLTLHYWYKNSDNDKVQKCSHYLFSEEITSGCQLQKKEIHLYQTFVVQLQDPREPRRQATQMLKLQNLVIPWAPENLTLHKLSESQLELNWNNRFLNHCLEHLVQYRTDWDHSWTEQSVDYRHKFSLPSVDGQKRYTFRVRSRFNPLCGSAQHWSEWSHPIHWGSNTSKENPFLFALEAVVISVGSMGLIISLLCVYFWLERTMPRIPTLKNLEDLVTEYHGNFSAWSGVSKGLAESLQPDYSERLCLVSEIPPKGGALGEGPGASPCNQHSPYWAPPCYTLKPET
his-tagged mammalian expressed control human IL-2, compound 13, sequence (P60568 other isoform, or with tags, fused parts or gaps limits assumed): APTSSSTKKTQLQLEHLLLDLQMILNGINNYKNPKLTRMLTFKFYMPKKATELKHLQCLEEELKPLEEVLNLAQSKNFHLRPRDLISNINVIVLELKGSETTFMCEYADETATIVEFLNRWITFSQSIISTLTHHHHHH
human IL-2Rα/β/γ (human), sequence (P01589 22-272, chain 1 of 3): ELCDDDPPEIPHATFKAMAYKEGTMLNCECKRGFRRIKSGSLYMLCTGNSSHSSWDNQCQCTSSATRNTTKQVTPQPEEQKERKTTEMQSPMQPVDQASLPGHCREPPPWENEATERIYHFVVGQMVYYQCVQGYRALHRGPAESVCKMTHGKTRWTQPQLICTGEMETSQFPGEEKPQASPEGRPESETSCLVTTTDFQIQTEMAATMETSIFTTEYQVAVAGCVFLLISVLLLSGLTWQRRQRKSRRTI
human IL-2Rα/β/γ (human), sequence (P14784 27-551, chain 2 of 3, further chain): as the sequence (P14784 27-551, chain 1 of 2) above
human IL-2Rα/β/γ (human), sequence (P31785 23-369, chain 3 of 3, further chain): as the sequence (P31785 23-369, chain 2 of 2, further chain) above

Question: What does the source list for “his-tagged mammalian expressed control human IL-2, compound 13 (from UniProt P60568 21-153) (ligand)”?
Answer: pSTAT5 EC50, Treg, cynomolgus monkey whole blood [1]: 0.09 ng/mL; pSTAT5 EC50, Treg, human whole blood (human IL-2Rα/β/γ (human)): 0.09 ng/mL; pSTAT5 EC50, CD8, human blood (additional experiments) (human IL-2Rβ/γ (human)): 4.94 ng/mL; pSTAT5 EC50, CD8, human whole blood (human IL-2Rβ/γ (human)): 25.7 ng/mL; pSTAT5 EC50, NK, human blood (additional experiments) (human IL-2Rβ/γ (human)): 17.6 ng/mL; pSTAT5 EC50, NK, human whole blood (human IL-2Rβ/γ (human)): 6.01 ng/mL; pSTAT5 EC50, CD8, mouse blood (mouse IL-2Rβ/γ (mouse)): 24000 ng/mL; pSTAT5 EC50, NK, mouse blood (mouse IL-2Rβ/γ (mouse)): 9690 ng/mL
